Experiment [1] addresses T1, human AF9 YEATS domain (residues 1–138) (Homo sapiens, UniProt P42568).
T1 construct: containing the cloned AF9 YEATS gene (amino acids 1–138) with an N-terminal 6xHis tag; 6xHis (N); made in house; host or cells: E. coli Rosetta 2(DE3)pLysS
T1 sequence (P42568 1-138): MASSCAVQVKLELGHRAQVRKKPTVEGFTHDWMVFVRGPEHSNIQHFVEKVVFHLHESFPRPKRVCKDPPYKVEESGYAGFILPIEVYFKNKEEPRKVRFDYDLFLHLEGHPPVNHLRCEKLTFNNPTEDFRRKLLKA
The experiment is described as follows: ITC binding assay with AF9 YEATS domain. The settings on record: MicroCal PEAQ-ITC, 50 mM NaH2PO4, 500 mM NaCl, 2 mM EDTA, 2 mM β-ME, H3 peptides 1.1–2.7 mM titrated into AF9 YEATS 94–205 μM, One Set of Sites model, n = 3, errors as standard error (SE).
Experimental: The plasmid was transformed into Rosetta 2(DE3)pLysS E. coli cells (Novagen, Darmstadt, Germany) by the heat-shock method. Transformed cells were cultivated at 37 °C in TB medium supplemented with 50 μg/mL kanamycin and 35 μg/mL chloramphenicol. The cultivation continued until the culture’s OD600 reached 1.5. Then the culture was cooled down to room temperature (RT), and the protein expression was induced by adding isopropyl β-d-1-thiogalactopyranoside (IPTG) at a final concentration of 0.3 mM. The cultivation was continued for 18 h at RT. After the protein expression was completed, the cells were harvested by centrifuging the culture at 6500 rpm at 4 °C for 15 min. The pellets were then resuspended in cell lysis buffer containing 50 mM Tris, 500 mM NaCl, 30 mM imidazole, at pH 7.4, 1 mM phenylmethylsulfonyl fluoride (PMSF), 2 mM β-mercaptaethanol (β-ME), and 20 μg/mL DNase I. Subsequently, the cells were lysed using the One Shot Cell Disrupter (Constant Systems LTD, Daventry, UK), and the cell debris was settled down by centrifuging the lysate at 19500 rpm at 4 °C for 20 min. […]
ITC experiments were performed using a MicroCal PEAQ-ITC instrument (Malvern Panalytical, Malvern, UK). […] The concentrations of all histone peptides and proteins were measured by UV analysis on a Thermo-Fisher Nanodrop spectrophotometer in buffer using λmax at 215 nm and 280 nm, respectively. […]

Experiment [2] addresses T2, recombinant human AF9 YEATS domain (residues 1–138) (human, UniProt P42568 1-138).
T2 construct: AF9 (MLLT3), human, YEATS domain, amino acids 1-138, in pET28b(+); Plasmid was a gift from Prof; No step that removes the tag is described; the final SEC product is called 6xHis AF9 YEATS, so the tag was probably still on in ITC; also called 6xHis-AF9 YEATS; source: E. coli Rosetta 2(DE3)pLysS, purified (HisTrap Ni-NTA, Superdex 75 SEC)
T2 sequence (looked up): T1 sequence (P42568 1-138)
The experiment is described as follows: ITC; H3 peptides (1.1–2.7 mM) titrated into AF9 YEATS (94–205 μM), 19 injections; 50 mM NaH2PO4, 500 mM NaCl, 2 mM EDTA, 2 mM β-ME; One Set of Sites model; triplicates. As to conditions: both partners purified.

Starred links: 1 amine or outer side, 2 acyl side, 3 side chain; linkers in the order of their positions; H or OH if unused. Non-standard residues stand in square brackets, D forms with d. No end group written: not given here. Kmea = methacryllysine, C=C(C)C(=O)NCCCC[C@H](N[*:1])C(=O)[*:2]; Kcr = crotonyllysine, C/C=C/C(=O)NCCCC[C@H](N[*:1])C(=O)[*:2]

For the molecule `C/C=C/C(=O)NCCCC[C@H](NC(=O)[C@H](CCCNC(=N)N)NC(=O)[C@H](C)NC(=O)[C@@H](NC(=O)[C@H](CCC(N)=O)NC(=O)[C@H](CCCCN)NC(=O)[C@@H](N)[C@@H](C)O)[C@@H](C)O)C(=O)N[C@@H](CO)C(=O)N[C@H](C(=O)NCC(=O)NCC(=O)N[C@@H](CCCCN)C(=O)N[C@@H](C)C(N)=O)[C@@H](C)O` [H3K9cr], the “N (Stoichiometry)” value in experiment [1] worked out at 0.98 ± 0.01.

B1: histone H3K9mea peptide (residues 3–15) (peptide)
peptide: TKQTAR[Kmea]STGGKA-NH2
notes: histone H3, residues 3-15; the stretch is the same in H3.1, H3.2 and H3.3; Made on Rink amide resin, so the C-terminus is probably an amide; last residue coupled as N-alpha-Boc amino acid, so the N-terminus is probably free; source: synthetic peptide (Fmoc-SPPS on Rink amide resin, RP-HPLC purified)
For B1, in experiment [2], the Kd came to 59 µM and the “stoichiometry N” value stood at 1.02.

B2: histone H3K18cr peptide (residues 10–25) (peptide)
peptide: STGGKAPRKQLATKAA
modifications: crotonyllysine (Kcr) at K18
notes: histone H3, residues 10-25; the stretch is the same in H3.1, H3.2 and H3.3; Made on Rink amide resin, so the C-terminus is probably an amide; last residue coupled as N-alpha-Boc amino acid, so the N-terminus is probably free; also called H3K18Kcr; source: synthetic peptide (Fmoc-SPPS on Rink amide resin, RP-HPLC purified)
For B2, in experiment [2], the Kd came to 21 µM.

B3: histone H3K9cr peptide (residues 3–15) (peptide)
peptide: TKQTAR[Kcr]STGGKA-NH2
notes: as for B1
Regarding B3, in experiment [2], the Kd stood at 11 µM and the “stoichiometry N” value was 0.98.

B4: histone H3K18mea peptide (residues 10–25) (peptide)
peptide: STGGKAPRKQLATKAA
modifications: methacryllysine (Kmea) at K18
notes: histone H3, residues 10-25; the stretch is the same in H3.1, H3.2 and H3.3; Made on Rink amide resin, so the C-terminus is probably an amide; last residue coupled as N-alpha-Boc amino acid, so the N-terminus is probably free; source: synthetic peptide (Fmoc-SPPS on Rink amide resin, RP-HPLC purified)
Regarding B4, the Kd in experiment [2] was 114 µM.

By Kd is commonly meant the constant that tells how readily two partners part at equilibrium. The term stoichiometry N denotes the number of molecules, sites or subunits per partner or assembly.
